Assay results from article PMC10470521, “Structural basis of a bi-functional malonyl-CoA reductase (MCR) from the photosynthetic green non-sulfur bacterium Roseiflexus castenholzii” (mBio, 2023).
Positions count from the first letter of the chain named. In names and notes the source's numbering stands.

B1: RfxMCR-N (Met1-Phe572) (domain or fragment, Roseiflexus castenholzii DSM 13941, UniProt A7NN59 1-572, looked up)
chain: MSTVRRLEGKVALITGGAGNIGEVITRRFLAEGATVVITGRNAEKLAVYRRRLIDEERVAPERVVALRMDGSDIAQVRAGVAQIVHGGTDVPIPLHRIDILVNNAGSAGPRRRLVDIPLEPSEVQPPDSETLAQAVGNLVGITWNLTRAAAPHMPSGSSVINISTIFSRTDYYGRIAYVAPKAALNALSDGLARELGVRGIRVNTIYPGPIESERIYTMFQAMDALKGQPEGDTASGFLRMMRLSRIDQNGEVVKRFPSPVDVANTAVFLASDESAAFTGHAFEVTHGMEVPTESRTTFVSRPGLRSVDATGKVILICAGDQVDDAVALADTLRSCRATVVIGFRDPRALEKASVLLREPRHALAADMYGRPTMTAEARLVRLDPLDPRAAAQTLEQIHAELGAIHHAVVLPGQSRHAPSASLIEVDDQVVERFLHQELVGTIALARELARFWEEYPSGSSMHRVLFVSNPDDQQGNQYSHILRAAVEQLVRVWRHESEYDSVNPAHQQEGQSSAAVWANQLIRYVNNEMANLDFTCAWVAKLLGSDRRIAEINLYLPEEIVGTIGVHNPGF
notes: malonyl-CoA reductase (MCR) of Roseiflexus castenholzii DSM 13941, gene Rcas_2929, residues Met1-Phe572 (SDR1 and SDR2 domains); Cloned into pET28a at XhoI and NcoI; also called N-terminal fragment; SDR1-SDR2
B2: full-length malonyl-CoA reductase from Roseiflexus castenholzii (RfxMCR) (enzyme, Roseiflexus castenholzii DSM 13941, UniProt A7NN59 1-1229, looked up)
chain: MSTVRRLEGKVALITGGAGNIGEVITRRFLAEGATVVITGRNAEKLAVYRRRLIDEERVAPERVVALRMDGSDIAQVRAGVAQIVHGGTDVPIPLHRIDILVNNAGSAGPRRRLVDIPLEPSEVQPPDSETLAQAVGNLVGITWNLTRAAAPHMPSGSSVINISTIFSRTDYYGRIAYVAPKAALNALSDGLARELGVRGIRVNTIYPGPIESERIYTMFQAMDALKGQPEGDTASGFLRMMRLSRIDQNGEVVKRFPSPVDVANTAVFLASDESAAFTGHAFEVTHGMEVPTESRTTFVSRPGLRSVDATGKVILICAGDQVDDAVALADTLRSCRATVVIGFRDPRALEKASVLLREPRHALAADMYGRPTMTAEARLVRLDPLDPRAAAQTLEQIHAELGAIHHAVVLPGQSRHAPSASLIEVDDQVVERFLHQELVGTIALARELARFWEEYPSGSSMHRVLFVSNPDDQQGNQYSHILRAAVEQLVRVWRHESEYDSVNPAHQQEGQSSAAVWANQLIRYVNNEMANLDFTCAWVAKLLGSDRRIAEINLYLPEEIVGTIGVHNPGFGWAESLFGLHMGKVALITGGSAGIGGQIGRLLALSGAHVMLAARNADQLEQMRASIVREVRDASYPDAESRVAIFPGSDVSDIDGLERLVNHTVRVFGKVDYLINNAGIAGAEEMVIDMPVDAWRHTLRANLISNYALLRRLAPQMKAAGGAYVLNVSSYFGGEKYVAIPYPNRSDYAVSKAGQRAMVESLARFLGPEIQINAIAPGPVEGERLKGAGSRPGLFMRRARLILENKRLNEVFAALLAARHEGATIADLLPDLFANDIQSIANSAAMPAPLRRLATMLRETSDAGGSAQSYLMNATIARKLLNRLENGGYITLHDRRALTVEPPEPFFTEAQIEREAIKVRDGILGMLHLQRMPTEFDVALATVFYLADRNVTGETFHPSGGLRFERTVTEGELFGKPGQQRLERLKGSVVYLIGEHLRQHLVLLARTFLDEIHVARVVLLTETTQAATDLAAELSDYEAAGRFVVIPTCGDIEGGIDRAMAEYGRPGPVISTPFRPLPDRALSARNGDWSSVLTTAEFEELVEQQITHHFRVARKAGLIEGANVTLVTPPTSARSTSEEFALANFVKTTLHALTATAGAESERTVPHVPVNQVDLTRRARSEEPRTPSEEEEELQRFVNAVLLTSAPLPTPLESRYRARIYRGNAITV
notes: malonyl-CoA reductase (MCR) of Roseiflexus castenholzii DSM 13941, gene Rcas_2929, full length Met1-Val1229; Cloned into pET20b at XhoI and NdeI; also called full-length RfxMCR; wild-type RfxMCR
B3: RfxMCR double mutant W574A E576A (enzyme, Roseiflexus castenholzii DSM 13941)
chain: B2 chain with W574A, E576A
notes: malonyl-CoA reductase (MCR) of Roseiflexus castenholzii DSM 13941, gene Rcas_2929, with W574A and E576A; source: E. coli BL21(DE3), purified following the same procedure as the wild-type protein
B4: RfxMCR triple mutant W574A E576A F579A (enzyme, Roseiflexus castenholzii DSM 13941)
chain: B2 chain with W574A, E576A, F579A
notes: malonyl-CoA reductase (MCR) of Roseiflexus castenholzii DSM 13941, gene Rcas_2929, with W574A, E576A and F579A; source: E. coli BL21(DE3), purified following the same procedure as the wild-type protein
B5: RfxMCR single mutant E576A (enzyme, Roseiflexus castenholzii DSM 13941)
chain: B2 chain with E576A
notes: malonyl-CoA reductase (MCR) of Roseiflexus castenholzii DSM 13941, gene Rcas_2929, with E576A; source: E. coli BL21(DE3), purified following the same procedure as the wild-type protein

Columns and labels:
[1] = target: the molecule itself; assay: crystal structure; RfxMCR-N with NADP+ and MSA; 1 M sodium malonate pH 5.0, 0.1 M sodium acetate pH 4.5, 3% PEG 20,000, 16°C; P6(5)22, one monomer in the asymmetric unit, dimer by crystal packing; 2.0 Å
[2] = target: the molecule itself; assay: SEC; gel filtration on HiLoad 16/600 Superdex 200PG; 25 mM Tris-HCl pH 8.0, 150 mM NaCl
purified protein = substrate: CC(C)(COP(=O)(O)OP(=O)(O)OC[C@H]1O[C@@H](n2cnc3c(N)ncnc32)[C@H](O)[C@@H]1OP(=O)(O)O)[C@@H](O)C(=O)NCCC(=O)NCCSC(=O)CC(=O)O; assay: purified protein; assay type: biochemical, Roseiflexus castenholzii; details: 0.4 mM NADPH, 5 mM MgCl2, 100 mM Tris-HCl pH 8.0, 150 mM NaCl, 50°C, apparent, overall two-step reduction

Protein	stoichiometry N [2]	further results
B1		stoichiometry N [1]: 2
B2	2	Km (purified protein): 380 ± 80 µM; kcat (purified protein): 5.65 ± 0.57 s⁻¹; kcat/Km (purified protein): 14800 ± 1540 M⁻¹ s⁻¹
B3	2	
B4	2	
B5	2	
